Experimental data from patent US20080138790A1 (priority 2004, published 2008).
Where two headings read alike, the source gives them in different places.

How the values were obtained:
rat = details: cited from earlier work
[1] = Percentage Met-Hb over time of stroma free hemoglobin with/without solvent-detergent; format: physicochemical
Procedure: (§1) The solvent-detergent treatment was performed at a concentration of 1% Tween 80 […] and 0.3% Tri-N-Butyl Phosphate […]. […] All testing was performed at neutral pH in phosphate buffered saline.
(§2) After treatment, the mixture was centrifuged at 8,000 rpm (4,600 g) for 6 minutes at room temperature.

[2] = Total Hb over time of stroma free hemoglobin with/without solvent-detergent; format: physicochemical
Procedure: as §1, §2

[3] = in vivo; cited from earlier work

CCCO [1-Propanol]
LD50 (oral-rat) (rat; in vivo, po): 1900 mg/kg

CCC(C)=O [2-Butanone]
LD50 (oral-rat) (rat; oral): 2700 mg/kg

CC(C)O [2-Propanol]
LD50 (oral-rat) (rat; in vivo, po): 5000 mg/kg

CC#N [Acetonitrile]
LD50 (oral-rat) (rat; oral): 3800 mg/kg

COCCOC [Dimethoxy- ethane (glyme), Dimethoxy- ethane]
LD50 (oral-rat) (rat; oral): 10000 mg/kg

CCOC(C)=O [Ethyl acetate]
LD50 (oral-rat) (rat; in vivo, po): 11000 mg/kg

CO [Methanol]
LD50 (oral-rat) (rat; oral): 5600 mg/kg

SFH: stroma free hemoglobin prepared as in Example 1, 8.6-9.0 g % in PBS
Percentage Met-Hb ([1]; 2-6° C., 0 hrs): 2.15%
Percentage Met-Hb ([1]; 2-6° C., 1 hrs): 2.2%
Percentage Met-Hb ([1]; 2-6° C., 2 hrs): 2.25%
Percentage Met-Hb ([1]; 2-6° C., 3 hrs): 2.15%
Percentage Met-Hb ([1]; 2-6° C., 4 hrs): 2.1%
Percentage Met-Hb ([1]; 2-6° C., 5 hrs): 2.25%
Percentage Met-Hb ([1]; 21-23° C., 0 hrs): 2.2%
Percentage Met-Hb ([1]; 21-23° C., 1 hrs): 2.4%
Percentage Met-Hb ([1]; 21-23° C., 2 hrs): 2.45%
Percentage Met-Hb ([1]; 21-23° C., 3 hrs): 2.45%
Percentage Met-Hb ([1]; 21-23° C., 4 hrs): 2.6%
Percentage Met-Hb ([1]; 21-23° C., 5 hrs): 2.8%
Total Hb ([2]; 2-6° C., 0 hrs): 8.6 g %
Total Hb ([2]; 2-6° C., 1 hrs): 8.5 g %
Total Hb ([2]; 2-6° C., 2 hrs): 8.55 g %
Total Hb ([2]; 2-6° C., 3 hrs): 8.65 g %
Total Hb ([2]; 2-6° C., 4 hrs): 8.65 g %
Total Hb ([2]; 2-6° C., 5 hrs): 8.55 g %
Total Hb ([2]; 21-23° C., 0 hrs): 8.5 g %
Total Hb ([2]; 21-23° C., 1 hrs): 8.55 g %
Total Hb ([2]; 21-23° C., 2 hrs): 8.55 g %
Total Hb ([2]; 21-23° C., 3 hrs): 8.65 g %
Total Hb ([2]; 21-23° C., 4 hrs): 8.6 g %
Total Hb ([2]; 21-23° C., 5 hrs): 8.55 g %

conjugate of hemoglobin (with a molecular weight of 64,000) and dextran (having a molecular weight of 20,000): hemoglobin conjugated to dextran of molecular weight 20,000, reported by Blumenstein et al.
clearance from the circulation and through the kidneys [3]: cleared slowly from the circulation and negligibly through the kidneys
